Data published in publication PMC3264566, “Structure-Function Studies of DNA Binding Domain of Response Regulator KdpE Reveals Equal Affinity Interactions at DNA Half-Sites”.
Where a chain is given by its changes, count along the chain named.

Legend:
Conditions in all cases: protein: recombinant; tags: N-terminal His-tag removed with TEV; chain copies: 2; blunt
KdpE DBD (KdpEDBD) [1] = target: T1, KdpE DBD (KdpEDBD) (Escherichia coli str. K-12 substr. …, UniProt P21866 124-225); test: AUC sedimentation equilibrium; S1 half-site only, 1:1, AB model; AUC: 50 mM HEPES pH 7.4, 150 mM KCl, 1 mM EDTA, 20 C, DNA 0.5 uM in SV; EMSA: 10 mM Tris pH 8.0, 50 mM NaCl, 5% glycerol, 0.1% Triton X-100, 10 mM DTT, 1 mM EDT
T1 sequence: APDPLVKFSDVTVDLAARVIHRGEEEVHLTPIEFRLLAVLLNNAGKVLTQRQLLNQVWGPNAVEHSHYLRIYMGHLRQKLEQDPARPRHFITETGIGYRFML

KdpE DBD (KdpEDBD) [2] = target: T1, KdpE DBD (KdpEDBD); test: AUC sedimentation velocity (Sw isotherm); two-site model, Kd1; AUC: 50 mM HEPES pH 7.4, 150 mM KCl, 1 mM EDTA, 20 C, DNA 0.5 uM in SV; EMSA: 10 mM Tris pH 8.0, 50 mM NaCl, 5% glycerol, 0.1% Triton X-100, 10 mM DTT, 1 mM EDT
KdpE DBD (KdpEDBD) [3] = target: T1, KdpE DBD (KdpEDBD); test: AUC sedimentation equilibrium; first binding event, ABB model (macroscopic; upper limit); AUC: 50 mM HEPES pH 7.4, 150 mM KCl, 1 mM EDTA, 20 C, DNA 0.5 uM in SV; EMSA: 10 mM Tris pH 8.0, 50 mM NaCl, 5% glycerol, 0.1% Triton X-100, 10 mM DTT, 1 mM EDT
KdpE DBD (KdpEDBD) [4] = target: T1, KdpE DBD (KdpEDBD); test: EMSA; minimal 21 bp; AUC: 50 mM HEPES pH 7.4, 150 mM KCl, 1 mM EDTA, 20 C, DNA 0.5 uM in SV; EMSA: 10 mM Tris pH 8.0, 50 mM NaCl, 5% glycerol, 0.1% Triton X-100, 10 mM DTT, 1 mM EDT
KdpE DBD (KdpEDBD) [5] = target: T1, KdpE DBD (KdpEDBD); test: AUC sedimentation equilibrium; S2 half-site only, 1:1, AB model; AUC: 50 mM HEPES pH 7.4, 150 mM KCl, 1 mM EDTA, 20 C, DNA 0.5 uM in SV; EMSA: 10 mM Tris pH 8.0, 50 mM NaCl, 5% glycerol, 0.1% Triton X-100, 10 mM DTT, 1 mM EDT

B1: kdpFABCBS-7 (dsDNA)
DNA 1: CATTTTTATACTTTTTCCACACCCCGCCCG
DNA 2: CGGGCGGGGTGTGGAAAAAGTATAAAAATG
Kd (KdpE DBD (KdpEDBD) [1]): 350 ± 100 nM

B2: kdpFABCBS 30 bp (dsDNA)
DNA 1: B1 DNA 1 with C17T, C18T
DNA 2: B1 DNA 2 with G13A, G14A
Kd (KdpE DBD (KdpEDBD) [2]): 90 nM | Kd (KdpE DBD (KdpEDBD) [3]): 80 ± 25 nM

B3: kdpFABCBS 5'del1,3'del8 (21 bp) (dsDNA)
DNA 1: ATTTTTATACTTTTTTTACAC
DNA 2: GTGTAAAAAAAGTATAAAAAT
binding result (KdpE DBD (KdpEDBD) [4]): binds

B4: kdpFABCBS-1 (dsDNA)
DNA 1: CATTCCTATACTTTTTTTACACCCCGCCCG
DNA 2: CGGGCGGGGTGTAAAAAAAGTATAGGAATG
Kd (KdpE DBD (KdpEDBD) [5]): 200 ± 100 nM
